From patent US6344436B1, “Lipophilic peptides for macromolecule delivery” (Baylor College of Medicine, priority 1996, dated 2002)
Ends that are not written are not given here. * marks the point of attachment. N,N‑distearylglycyl = CCCCCCCCCCCCCCCCCCN(CCCCCCCCCCCCCCCCCC)CC(=O)*

Key:
[1] = Particle size of peptide-macromolecule complex after enmeshment and condensation; type: physicochemical; settings: for particle size: peptide added to DNA in the absence of condensing peptide, CHAPS micelles diluted below cmc
Description: Subsequently, the nucleic acid becomes coated with lipophilic peptide and enmeshed; forming a condensed nucleic acid/lipophilic peptide complex while CHAPS detergent monomers can be dialyzed out of the resulting mixture (FIGURE EIGHT).
The degree of condensation of the nucleic acid given the treatment of example two is shown as FIGURE NINE. When distearyl-glycyl-apoE-3^129-169 was added to DNA previously condensed with K8, the particle size increased only ˜20%. The addition of JTS-1 increased the particle size another 40%. By contrast, addition of distearyl-glycyl-apoE-3^129-169 to DNA in the absence of condensing peptide gave a smaller particle, about 60 nm. Condensation and enmeshment with the distearyl-glycyl-apoE-3^129-169Q142, the mutant peptide, also gave a small, 60 nm monodisperse particle population. When distearyl-glycyl-apoE-3^129-169 in 10 mM CHAPS was diluted without DNA being present, the resulting vesicles were ˜450 nm in diameter. […] Free DNA in the control remained at the top of the gradient, while the enmeshed-condensed complex was found at the bottom of the centrifugation tube.

293 epithelial cells = experiment: Transfection of 293 epithelial cells grown in lovastatin to up-regulate LDL receptors; type: cell-based; settings: for transfection ability of peptide-macromolecule complexes (FIG. 10): comparison between complexes
Description: The ability of the formulations of example three to transfect cells was tested in 293 epithelial cells grown in 1 μg mL^−1 lovastatin overnight to up-regulate LDL receptors. […] As expected from the reduced binding of the mutant peptide to the LDL receptor, expression by mutant peptide complexes was about 5% of that observed with the wild-type apoE peptide complexes. We conclude that the diacyl-peptide functions as a condensing agent, an encapsulation agent, a targeting agent and a lytic agent. Apart from the well defined receptor ligand domain, the sequence regions that contain the other functions remain to be elucidated.

LDL receptor = target: T1, LDL receptor (Homo sapiens, UniProt P01130); experiment: Cytosis and degradation of labeled LDL complexed with lipophilic peptide (FIG. 4); type: cell-based
T1 construct: endogenous in cells
T1 sequence (P01130 22-860, species assumed): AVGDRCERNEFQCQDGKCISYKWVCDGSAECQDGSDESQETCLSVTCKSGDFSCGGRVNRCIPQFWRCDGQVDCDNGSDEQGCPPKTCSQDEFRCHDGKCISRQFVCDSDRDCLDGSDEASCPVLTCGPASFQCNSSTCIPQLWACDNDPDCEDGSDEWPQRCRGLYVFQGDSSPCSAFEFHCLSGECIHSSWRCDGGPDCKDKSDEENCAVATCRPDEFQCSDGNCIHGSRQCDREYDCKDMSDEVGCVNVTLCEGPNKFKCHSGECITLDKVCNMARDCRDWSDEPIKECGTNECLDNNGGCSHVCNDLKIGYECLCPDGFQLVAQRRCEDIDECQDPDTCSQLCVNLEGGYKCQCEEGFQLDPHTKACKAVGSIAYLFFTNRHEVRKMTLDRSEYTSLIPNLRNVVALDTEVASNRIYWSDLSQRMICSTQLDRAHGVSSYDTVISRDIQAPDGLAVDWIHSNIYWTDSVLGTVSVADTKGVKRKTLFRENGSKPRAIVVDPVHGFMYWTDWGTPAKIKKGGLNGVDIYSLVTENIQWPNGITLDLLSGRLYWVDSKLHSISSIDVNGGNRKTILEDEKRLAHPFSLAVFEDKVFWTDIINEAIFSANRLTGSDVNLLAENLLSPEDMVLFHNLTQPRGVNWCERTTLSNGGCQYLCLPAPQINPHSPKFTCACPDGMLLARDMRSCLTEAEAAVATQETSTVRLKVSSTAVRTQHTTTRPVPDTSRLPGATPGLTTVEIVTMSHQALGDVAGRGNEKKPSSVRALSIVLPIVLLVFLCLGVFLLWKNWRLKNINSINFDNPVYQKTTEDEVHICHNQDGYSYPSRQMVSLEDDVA

Substance	further increase in particle size ([1]; JTS-1 added to K8-condensed DNA plus distearyl-glycyl-apoE-3^129-169) [%]	necessity of component for efficient gene transfer (293 epithelial cells; 293 epithelial cells (FIGURE TENc))	comparative size of peptide complexes ([1]; diameter after condensation of DNA (FIG. 9))	particle size [1]	increase in particle size ([1]; peptide added to DNA previously condensed with K8) [%]	diameter of resulting vesicles ([1]; peptide in 10 mM CHAPS diluted without DNA being present) [nm]	transfection ability of peptide-macromolecule complexes (FIG. 10) (293 epithelial cells)	cytosis and degradation of labeled LDL complexed with peptide (FIG. 4) (LDL receptor)	expression relative to wild-type apoE peptide complexes (293 epithelial cells; 293 epithelial cells, 1 μg mL^−1 lovastatin overnight)
GLFEALLELLESLWELLLEA [JTS-1, reference compound]	40	Neither the galtoselated K8 or JTS-1 were necessary	–	–	–	–	–	–	–
distearyl-glycyl-apoE-3^129-169 ({N,N‑distearylglycyl}-STEELRVRLASHLRKLRKRLLRDADDLQKRLAVYQAGAREG)	–	–	greatest reduction in diameter	about 60 nm	~20	~450	No significant transfection difference	cytosed and subsequently degraded	–
distearyl-glycyl-apoE-3^129-169(Q142)	–	–	–	60 nm	–	–	significantly less transfection	significantly less cytosis and degradation	about 5%
